T1: MecA (B. subtilis, UniProt P37958 1-218)
T1 sequence (looked up): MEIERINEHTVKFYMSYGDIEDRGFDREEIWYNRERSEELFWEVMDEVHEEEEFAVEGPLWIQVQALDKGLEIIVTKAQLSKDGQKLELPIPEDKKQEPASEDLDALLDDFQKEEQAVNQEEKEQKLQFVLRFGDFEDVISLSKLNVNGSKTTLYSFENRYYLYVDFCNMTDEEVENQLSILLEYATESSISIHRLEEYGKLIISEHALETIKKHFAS


Columns and labels:
Assay in all cases: pull-down
MecA = molecular target: T1, MecA
wild-type ClpP(6His) = wild-type ClpP(6His) (B. subtilis, UniProt P80244 1-197)
ClpP(6His)^TRAP = ClpP(6His)^TRAP (B. subtilis, UniProt P80244 1-197, Ser98Ala)

Row | Binder | binding result (MecA) | binding result (wild-type ClpP(6His)) | binding result (ClpP(6His)^TRAP)
1 | ClpC^NTD(1–150) (domain or fragment, B. subtilis, UniProt P37571 1-150, looked up) MMFGRFTERAQKVLALAQEEALRLGHNNIGTEHILLGLVREGEGIAAKALQALGLGSEKIQKEVESLIGRGQEMSQTIHYTPRAKKVIELSMDEARKLGHSYVGTEHILLGLIREGEGVAARVLNNLGVSLNKARQQVLQLLGSNETGSS | binds |  | 
2 | ClpC NTD^EA mutant (domain or fragment, B. subtilis, UniProt P37571 1-150, looked up) MMFGRFTERAQKVLALAQEEALRLGHNNIGTAHILLGLVREGEGIAAKALQALGLGSEKIQKEVESLIGRGQEMSQTIHYTPRAKKVIELSMDEARKLGHSYVGTAHILLGLIREGEGVAARVLNNLGVSLNKARQQVLQLLGSNETGSS | binds |  | 
3 | endogenous ClpP (enzyme) not shown |  | binds | binds

Source: paper PMC6640040 (Nature, 2016)
